This is an account of results in paper PMC5762779, “The peroxisomal AAA-ATPase Pex1/Pex6 unfolds substrates by processive threading” (Nature Communications, 2018).

Conditions in all cases: both partners purified
For one test, the target named is T1, fluorescein labeled Pex5 (S. cerevisiae, UniProt P35056 1-612, fluorescein (FAM) on a GGGK peptide joined by sortase at the C-terminal LPETGG site).
T1 construct: Pex5, S. cerevisiae W303; after labelling the chain ends LPET-GGGK-FAM; also called Pex5-FAM; source: E. coli BL21*, purified (Ni-NTA, anti-FLAG, Superdex 200), labelled with sortase and GGGK-FAM peptide; not shown: His6, C-terminal, cleaved
T1 sequence (looked up): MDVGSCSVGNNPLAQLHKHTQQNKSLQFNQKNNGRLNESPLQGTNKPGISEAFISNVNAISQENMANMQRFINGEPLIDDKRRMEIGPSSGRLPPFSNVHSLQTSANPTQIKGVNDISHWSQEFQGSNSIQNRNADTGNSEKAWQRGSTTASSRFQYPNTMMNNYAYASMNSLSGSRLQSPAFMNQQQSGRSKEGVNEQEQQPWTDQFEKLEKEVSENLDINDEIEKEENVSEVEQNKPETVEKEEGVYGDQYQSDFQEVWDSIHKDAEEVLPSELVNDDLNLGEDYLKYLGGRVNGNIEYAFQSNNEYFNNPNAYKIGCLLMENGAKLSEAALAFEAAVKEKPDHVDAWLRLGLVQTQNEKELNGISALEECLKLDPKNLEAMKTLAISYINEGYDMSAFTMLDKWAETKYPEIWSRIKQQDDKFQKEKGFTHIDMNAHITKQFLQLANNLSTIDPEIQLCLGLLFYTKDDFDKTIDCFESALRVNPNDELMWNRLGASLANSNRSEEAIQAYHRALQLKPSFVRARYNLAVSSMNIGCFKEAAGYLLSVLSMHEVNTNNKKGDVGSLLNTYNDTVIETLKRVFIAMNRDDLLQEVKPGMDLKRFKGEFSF
In words: pull-down; MBP-Pex6/Pex1 or MBP-Pex15 1-327 on magnetic amylose resin with Pex5-FAM; same conditions as Figure 7B (350 nM Pex5-FAM, 1 h, 4 °C, 60 mM HEPES pH 7.6, 150 mM NaCl, 150 mM KCl, 10% glycerol, 0.05% Tween-20, 10 mM MgCl2, 0.5 mM EDTA, 5 mM ATP); maltose elution; Pex5 seen by its fluorescein.

Another test has as its target T2, His-Pex6-FLAG (S. cerevisiae, UniProt P33760 1-1030).
T2 construct: Pex6, S. cerevisiae W303, purified individually; not shown: His, N-terminal, kept; FLAG, C-terminal, kept
T2 sequence (looked up): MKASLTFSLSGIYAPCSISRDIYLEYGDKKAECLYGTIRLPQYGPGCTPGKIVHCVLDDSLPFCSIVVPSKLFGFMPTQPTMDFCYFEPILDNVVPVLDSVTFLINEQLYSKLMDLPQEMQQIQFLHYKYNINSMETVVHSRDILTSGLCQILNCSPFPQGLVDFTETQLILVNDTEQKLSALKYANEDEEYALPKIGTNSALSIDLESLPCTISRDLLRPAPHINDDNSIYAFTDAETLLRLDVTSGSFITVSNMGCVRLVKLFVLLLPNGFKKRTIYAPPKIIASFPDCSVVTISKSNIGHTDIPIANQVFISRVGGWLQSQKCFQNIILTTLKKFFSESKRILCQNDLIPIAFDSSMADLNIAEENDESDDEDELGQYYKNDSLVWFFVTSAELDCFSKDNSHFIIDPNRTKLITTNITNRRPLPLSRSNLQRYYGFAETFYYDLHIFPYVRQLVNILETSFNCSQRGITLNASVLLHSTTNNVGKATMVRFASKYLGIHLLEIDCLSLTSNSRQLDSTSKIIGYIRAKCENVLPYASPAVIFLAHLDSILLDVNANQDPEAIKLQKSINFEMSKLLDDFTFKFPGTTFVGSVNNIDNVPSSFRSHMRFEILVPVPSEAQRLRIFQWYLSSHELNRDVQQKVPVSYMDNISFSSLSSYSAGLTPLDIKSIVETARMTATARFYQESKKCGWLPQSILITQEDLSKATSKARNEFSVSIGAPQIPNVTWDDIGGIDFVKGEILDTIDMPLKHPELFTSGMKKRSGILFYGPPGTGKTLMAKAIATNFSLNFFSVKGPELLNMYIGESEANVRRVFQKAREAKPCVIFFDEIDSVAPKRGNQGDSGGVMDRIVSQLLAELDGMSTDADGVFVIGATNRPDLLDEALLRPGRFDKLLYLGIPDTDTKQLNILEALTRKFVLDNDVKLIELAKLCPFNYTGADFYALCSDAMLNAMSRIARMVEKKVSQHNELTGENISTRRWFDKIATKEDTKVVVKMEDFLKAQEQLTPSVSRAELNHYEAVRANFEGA
In words: pull-down; 1 uM MBP-Pex15 1-327-FLAG-His on magnetic amylose resin with 0.5 uM Pex1-Strep/His-Pex6 hexamer, His-Pex1-FLAG, His-Pex6-FLAG or 5 uM His-Pex6 1-215; 1 h, 4 °C, 60 mM HEPES pH 7.6, 150 mM NaCl, 150 mM KCl, 10% glycerol, 0.05% Tween-20, 10 mM MgCl2, 0.5 mM EDTA, 5 mM ATP; maltose elution; SYPRO-Ruby or anti-His blot.

In test [1] the target is T3, Pex1-FLAG/His-Pex6 hexamer, wild type (S. cerevisiae, UniProt P24004 1-1043; P33760 1-1030).
T3 construct: Pex1, S. cerevisiae W303; Pex6, S. cerevisiae W303; Heterohexamer with alternating subunits; also called WT Pex1/Pex6; Pex1/Pex6; source: E. coli BL21*, co-expressed, purified (Ni-NTA, anti-FLAG, Superose6); copies: 3 + 3
T3 sequence (P24004 whole entry, chain 1 of 2, one chain of several): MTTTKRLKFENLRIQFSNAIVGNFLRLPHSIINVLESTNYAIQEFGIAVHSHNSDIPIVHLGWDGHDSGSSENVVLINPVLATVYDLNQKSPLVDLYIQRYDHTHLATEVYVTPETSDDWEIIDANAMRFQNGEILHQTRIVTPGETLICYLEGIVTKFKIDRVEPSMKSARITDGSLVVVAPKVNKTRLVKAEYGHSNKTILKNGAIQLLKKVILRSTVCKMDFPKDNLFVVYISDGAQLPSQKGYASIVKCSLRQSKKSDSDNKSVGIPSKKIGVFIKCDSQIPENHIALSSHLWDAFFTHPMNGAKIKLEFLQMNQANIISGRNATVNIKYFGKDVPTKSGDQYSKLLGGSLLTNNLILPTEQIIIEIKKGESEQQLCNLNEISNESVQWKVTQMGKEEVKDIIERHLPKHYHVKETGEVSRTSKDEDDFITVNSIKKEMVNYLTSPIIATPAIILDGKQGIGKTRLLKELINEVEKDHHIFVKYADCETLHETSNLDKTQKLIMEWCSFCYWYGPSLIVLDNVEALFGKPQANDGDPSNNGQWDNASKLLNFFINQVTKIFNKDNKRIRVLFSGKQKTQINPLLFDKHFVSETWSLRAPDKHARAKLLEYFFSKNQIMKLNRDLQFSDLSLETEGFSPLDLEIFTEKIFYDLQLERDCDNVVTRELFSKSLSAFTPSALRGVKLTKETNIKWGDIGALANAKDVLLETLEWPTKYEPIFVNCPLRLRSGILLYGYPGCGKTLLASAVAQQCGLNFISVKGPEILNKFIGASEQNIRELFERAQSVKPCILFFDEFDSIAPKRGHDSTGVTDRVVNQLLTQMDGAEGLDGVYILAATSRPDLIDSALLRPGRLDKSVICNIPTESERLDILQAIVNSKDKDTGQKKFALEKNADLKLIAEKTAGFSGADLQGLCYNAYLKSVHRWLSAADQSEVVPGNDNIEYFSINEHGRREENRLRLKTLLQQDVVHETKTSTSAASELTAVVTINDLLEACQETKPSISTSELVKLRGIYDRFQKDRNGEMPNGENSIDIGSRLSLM
In words: inhibition of ATPase activity (ATP/NADH coupled enzyme assay); apparent KD from the concentration-dependent inhibition of the ATPase activity of 5 nM Pex1/Pex6 by titrated Pex15; 5 mM ATP, 2 uM BSA; n = 3 technical replicates.

The target of test [2] is T4, Pex1-WB2/Pex6-WB2 mutant hexamer (Pex1-E798Q-Strep/His-Pex6-E832Q) (S. cerevisiae, UniProt P24004 1-1043; P33760 1-1030, E798Q | E832Q).
T4 construct: Pex1, S. cerevisiae W303, Walker B D2 mutant; Pex6, S. cerevisiae W303, Walker B D2 mutant; also called Pex1-WB/Pex6-WB; ATPase-deficient Pex1/Pex6; source: E. coli BL21*, co-expressed, purified (Ni-NTA, Streptactin); copies: 3 + 3
T4 sequence (P24004 whole entry E798Q, one chain of several): as the sequence (P24004 whole entry, chain 1 of 2, one chain of several) above, with E798Q counted along it
In words: pull-down; MBP-Pex15 1-309 or MBP-Pex15 1-253 with Pex1-WB2/Pex6-WB2; maltose elution, SDS-PAGE.

B1: MBP-Pex15 1-327-FLAG-His (domain or fragment, S. cerevisiae, UniProt Q08215 1-327, looked up)
chain: MAASEIMNNLPMHSLDSSLRDLLNDDLFIESDESTKSVNDQRSEVFQECVNLFIKRDIKDCLEKMSEVGFIDITVFKSNPMILDLFVSACDIMPSFTKLGLTLQSEILNIFTLDTPQCIETRKIILGDLSKLLVINKFFRCCIKVIQFNLTDHTEQEEKTLELESIMSDFIFVYITKMRTTIDVVGLQELIEIFIFQVKVKLHHKKPSPNMYWALCKTLPKLSPTLKGLYLSKDVSIEDAILNSIDNKIQKDKAKSKGKQRGVKQKIHHFHEPMLHNSSEEQVKVEDAFNQRTSTDSRLQSTGTAPRKKNNDITVLAGSFWAVLKHH
notes: Pex15, S. cerevisiae W303, cytosolic domain, residues 1-327; Held on magnetic amylose resin by its MBP; not shown: MBP, N-terminal, kept; FLAG, C-terminal, kept; His, C-terminal, kept
Regarding B1, the binding result with fluorescein labeled Pex5 and with His-Pex6-FLAG was “binds” each time.

B2: Pex15 1-309 L22A L23A (domain or fragment, S. cerevisiae, UniProt Q08215 1-309, looked up)
chain: MAASEIMNNLPMHSLDSSLRDAANDDLFIESDESTKSVNDQRSEVFQECVNLFIKRDIKDCLEKMSEVGFIDITVFKSNPMILDLFVSACDIMPSFTKLGLTLQSEILNIFTLDTPQCIETRKIILGDLSKLLVINKFFRCCIKVIQFNLTDHTEQEEKTLELESIMSDFIFVYITKMRTTIDVVGLQELIEIFIFQVKVKLHHKKPSPNMYWALCKTLPKLSPTLKGLYLSKDVSIEDAILNSIDNKIQKDKAKSKGKQRGVKQKIHHFHEPMLHNSSEEQVKVEDAFNQRTSTDSRLQSTGTAPRKK
notes: also called Pex15 L22AL23A; source: E. coli BL21*, purified (Ni-NTA, tag cleaved with PreScission protease, Superdex 200); not shown: His, C-terminal, cleaved
Regarding B2, the Kd in test [1] was 8.7 µM.

B3: MBP-Pex15 1-309 (domain or fragment, S. cerevisiae, UniProt Q08215 1-309, looked up)
chain: MAASEIMNNLPMHSLDSSLRDLLNDDLFIESDESTKSVNDQRSEVFQECVNLFIKRDIKDCLEKMSEVGFIDITVFKSNPMILDLFVSACDIMPSFTKLGLTLQSEILNIFTLDTPQCIETRKIILGDLSKLLVINKFFRCCIKVIQFNLTDHTEQEEKTLELESIMSDFIFVYITKMRTTIDVVGLQELIEIFIFQVKVKLHHKKPSPNMYWALCKTLPKLSPTLKGLYLSKDVSIEDAILNSIDNKIQKDKAKSKGKQRGVKQKIHHFHEPMLHNSSEEQVKVEDAFNQRTSTDSRLQSTGTAPRKK
notes: not shown: MBP, N-terminal, kept
Regarding B3, the binding result in test [2] is recorded as “binds”.

B4: Pex15 12-309 (domain or fragment, S. cerevisiae, UniProt Q08215 12-309, looked up)
chain: MHSLDSSLRDLLNDDLFIESDESTKSVNDQRSEVFQECVNLFIKRDIKDCLEKMSEVGFIDITVFKSNPMILDLFVSACDIMPSFTKLGLTLQSEILNIFTLDTPQCIETRKIILGDLSKLLVINKFFRCCIKVIQFNLTDHTEQEEKTLELESIMSDFIFVYITKMRTTIDVVGLQELIEIFIFQVKVKLHHKKPSPNMYWALCKTLPKLSPTLKGLYLSKDVSIEDAILNSIDNKIQKDKAKSKGKQRGVKQKIHHFHEPMLHNSSEEQVKVEDAFNQRTSTDSRLQSTGTAPRKK
notes: begins at M12 (primer 'Pex15 M12 forward', D1:p20); source: E. coli BL21*, purified (Ni-NTA, tag cleaved with PreScission protease, Superdex 200); not shown: His, C-terminal, cleaved
With B4, the Kd in test [1] came out at 0.86 µM.

B5: Pex15 30-309 (domain or fragment, S. cerevisiae, UniProt Q08215 30-309, looked up)
chain: ESDESTKSVNDQRSEVFQECVNLFIKRDIKDCLEKMSEVGFIDITVFKSNPMILDLFVSACDIMPSFTKLGLTLQSEILNIFTLDTPQCIETRKIILGDLSKLLVINKFFRCCIKVIQFNLTDHTEQEEKTLELESIMSDFIFVYITKMRTTIDVVGLQELIEIFIFQVKVKLHHKKPSPNMYWALCKTLPKLSPTLKGLYLSKDVSIEDAILNSIDNKIQKDKAKSKGKQRGVKQKIHHFHEPMLHNSSEEQVKVEDAFNQRTSTDSRLQSTGTAPRKK
notes: begins at E30 (primer 'Pex15 E30 forward', D1:p20); source: E. coli BL21*, purified (Ni-NTA, tag cleaved with PreScission protease, Superdex 200); not shown: His, C-terminal, cleaved
In the case of B5, the Kd in test [1] amounted to 5.3 µM.

B6: Pex15 43-309 (domain or fragment, S. cerevisiae, UniProt Q08215 43-309, looked up)
chain: SEVFQECVNLFIKRDIKDCLEKMSEVGFIDITVFKSNPMILDLFVSACDIMPSFTKLGLTLQSEILNIFTLDTPQCIETRKIILGDLSKLLVINKFFRCCIKVIQFNLTDHTEQEEKTLELESIMSDFIFVYITKMRTTIDVVGLQELIEIFIFQVKVKLHHKKPSPNMYWALCKTLPKLSPTLKGLYLSKDVSIEDAILNSIDNKIQKDKAKSKGKQRGVKQKIHHFHEPMLHNSSEEQVKVEDAFNQRTSTDSRLQSTGTAPRKK
notes: begins at S43 (primer 'Pex15 S43 forward', D1:p20); source: E. coli BL21*, purified (Ni-NTA, tag cleaved with PreScission protease, Superdex 200); not shown: His, C-terminal, cleaved
Turning to B6, the Kd in test [1] was determined as 5.6 µM.

B7: MBP-Pex15 1-253 (domain or fragment, S. cerevisiae, UniProt Q08215 1-253, looked up)
chain: MAASEIMNNLPMHSLDSSLRDLLNDDLFIESDESTKSVNDQRSEVFQECVNLFIKRDIKDCLEKMSEVGFIDITVFKSNPMILDLFVSACDIMPSFTKLGLTLQSEILNIFTLDTPQCIETRKIILGDLSKLLVINKFFRCCIKVIQFNLTDHTEQEEKTLELESIMSDFIFVYITKMRTTIDVVGLQELIEIFIFQVKVKLHHKKPSPNMYWALCKTLPKLSPTLKGLYLSKDVSIEDAILNSIDNKIQKDK
notes: as for B3
Turning to B7, the binding result in test [2] is “binds”.
